The target of assay [1] is human complement C3 (from human pooled serum) (human) (UniProt P01024). In words: C3 ELISA, antibody coated, human pooled serum added. On the technique in general: ELISA stands for enzyme-linked immunosorbent assay.
Assay [2] concerns the target Fcγ receptors on monocytes (FcγRI and RII) (human). The experiment in a line: FACS on human monocytes, antibody 10 µg/ml.
In assay [3] the target is Fcγ receptors on granulocytes (FcγRII and RIII) (human). In words: FACS on human granulocytes, antibody 10 µg/ml.

In turn, “HuMab 002 Fc variant IgG1v2 (L234A; L235A) (antibody)” returned a Bmax (OD405 at 10 µg/ml) in assay [1] of 0.133 OD405. Take “HuMab 002 Fc variant IgG4v1 (S228P; L235E) (antibody)”: in assay [1], the Bmax (OD405 at 10 µg/ml) stood at 0.104 OD405. The % monocytes binding antibody in assay [2] is 14.5%. This substance also showed a % granulocytes binding antibody in assay [3] of 1.6%.

“human IgG4 (CLB, the Netherlands), negative control (antibody)”: in assay [2], the % monocytes binding antibody amounted to 9.4%.

The values are drawn from USRE43568.
